According to the supplement of paper PMC7125110:
± gives the standard error. This sample holds only a part of the variants without activity.

B1: glmS ribozyme (parent)
chain: AUAAAAGCGCCAGAACUACAGAAAUGUAGUUGACGAGGAGGAGGUUUAUCGAAUUUUCGGCGGAUGCCUCCAAA

Tests used:
Conditions in all cases: with glucosamine-6-phosphate
[1] = variants of: B1; assay: self-cleavage kobs at 40 uM GlcN6P; higher = faster cleavage; RNA array
Summary of the method: (§1)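 On sequenced MiSeq chips, barcoded ribozyme variants were made in situ by E. coli RNA polymerase and followed at 37 °C through a hybridised Cy3 probe. Glucosamine-6-phosphate was flowed in at 40 μM to 10 mM in HEPES/KCl/Mg(OAc)2 buffer. Exponential fits to normalised per-tile medians gave kobs, and weighted Michaelis–Menten fits gave kcat and KM.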

[2] = variants of: B1; assay: self-cleavage kobs at 10000 uM GlcN6P; higher = faster cleavage; RNA array
Summary of the method: as §1

[3] = variants of: B1; assay: self-cleavage kobs at 160 uM GlcN6P; higher = faster cleavage; RNA array
Summary of the method: as §1

[4] = variants of: B1; assay: self-cleavage kobs at 2500 uM GlcN6P; higher = faster cleavage; RNA array
Summary of the method: as §1

[5] = variants of: B1; assay: self-cleavage kobs at 640 uM GlcN6P; higher = faster cleavage; RNA array
Summary of the method: as §1

A14G C16A U54G
self-cleavage kobs at 40 uM GlcN6P [1]: 0.000211 ± 4.8e-05 s⁻¹ | self-cleavage kobs at 10000 uM GlcN6P [2]: 0.00361 ± 0.00067 s⁻¹

G38C A39U A42G U54A C67G C70U
self-cleavage kobs at 40 uM GlcN6P [1]: < 1e-05 s⁻¹

C11A C58A A64G
self-cleavage kobs at 40 uM GlcN6P [1]: < 1e-05 s⁻¹

C34U A36U G66A
self-cleavage kobs at 40 uM GlcN6P [1]: < 1e-05 s⁻¹ | self-cleavage kobs at 10000 uM GlcN6P [2]: < 1e-05 s⁻¹

G7C A42C C61U
self-cleavage kobs at 40 uM GlcN6P [1]: < 1e-05 s⁻¹

G9A U47G A48U
self-cleavage kobs at 40 uM GlcN6P [1]: < 1e-05 s⁻¹

C50U G62U
self-cleavage kobs at 40 uM GlcN6P [1]: < 1e-05 s⁻¹ | self-cleavage kobs at 10000 uM GlcN6P [2]: < 1e-05 s⁻¹

C11A U31C G44C C70U
self-cleavage kobs at 40 uM GlcN6P [1]: < 1e-05 s⁻¹

G7C A39C
self-cleavage kobs at 40 uM GlcN6P [1]: < 1e-05 s⁻¹ | self-cleavage kobs at 160 uM GlcN6P [3]: < 1e-05 s⁻¹ | self-cleavage kobs at 10000 uM GlcN6P [2]: < 1e-05 s⁻¹

C8G C68G
self-cleavage kobs at 40 uM GlcN6P [1]: < 1e-05 s⁻¹ | self-cleavage kobs at 160 uM GlcN6P [3]: < 1e-05 s⁻¹ | self-cleavage kobs at 10000 uM GlcN6P [2]: < 1e-05 s⁻¹

G32C A39C G44A A48G U65C C68A C71A
self-cleavage kobs at 40 uM GlcN6P [1]: < 1e-05 s⁻¹ | self-cleavage kobs at 10000 uM GlcN6P [2]: < 1e-05 s⁻¹

A6G A15G G66U C70U
self-cleavage kobs at 40 uM GlcN6P [1]: < 1e-05 s⁻¹

A14C A15C G62U G63C
self-cleavage kobs at 40 uM GlcN6P [1]: < 1e-05 s⁻¹

A12G A36C G51U
self-cleavage kobs at 40 uM GlcN6P [1]: < 1e-05 s⁻¹ | self-cleavage kobs at 10000 uM GlcN6P [2]: < 1e-05 s⁻¹

A42G U47G C61U U69G
self-cleavage kobs at 40 uM GlcN6P [1]: < 1e-05 s⁻¹ | self-cleavage kobs at 2500 uM GlcN6P [4]: < 1e-05 s⁻¹

A33G C68U
self-cleavage kobs at 40 uM GlcN6P [1]: < 1e-05 s⁻¹ | self-cleavage kobs at 10000 uM GlcN6P [2]: < 1e-05 s⁻¹

A33C U47C G59A
self-cleavage kobs at 40 uM GlcN6P [1]: < 1e-05 s⁻¹

G35U A53G
self-cleavage kobs at 40 uM GlcN6P [1]: < 1e-05 s⁻¹ | self-cleavage kobs at 160 uM GlcN6P [3]: < 1e-05 s⁻¹ | self-cleavage kobs at 640 uM GlcN6P [5]: < 1e-05 s⁻¹ | self-cleavage kobs at 2500 uM GlcN6P [4]: < 1e-05 s⁻¹ | self-cleavage kobs at 10000 uM GlcN6P [2]: < 1e-05 s⁻¹

G38A C50G C68U
self-cleavage kobs at 40 uM GlcN6P [1]: 7.89e-05 ± 2.3e-05 s⁻¹ | self-cleavage kobs at 640 uM GlcN6P [5]: 8.33e-05 ± 3.1e-05 s⁻¹ | self-cleavage kobs at 2500 uM GlcN6P [4]: 0.000109 ± 2.4e-05 s⁻¹ | self-cleavage kobs at 10000 uM GlcN6P [2]: 4.82e-05 ± 1.5e-05 s⁻¹

G13U U57G
self-cleavage kobs at 40 uM GlcN6P [1]: < 1e-05 s⁻¹

A15C C71A
self-cleavage kobs at 40 uM GlcN6P [1]: 3.98e-05 ± 9.4e-06 s⁻¹ | self-cleavage kobs at 160 uM GlcN6P [3]: 8.22e-05 ± 3.4e-05 s⁻¹ | self-cleavage kobs at 640 uM GlcN6P [5]: 0.000136 ± 5.9e-05 s⁻¹ | self-cleavage kobs at 2500 uM GlcN6P [4]: 0.000291 ± 7.5e-05 s⁻¹ | self-cleavage kobs at 10000 uM GlcN6P [2]: 0.00151 ± 0.00019 s⁻¹

C11U A12U G13U A64C
self-cleavage kobs at 40 uM GlcN6P [1]: < 1e-05 s⁻¹ | self-cleavage kobs at 10000 uM GlcN6P [2]: < 1e-05 s⁻¹

U31A A53G C61A
self-cleavage kobs at 40 uM GlcN6P [1]: < 1e-05 s⁻¹ | self-cleavage kobs at 2500 uM GlcN6P [4]: < 1e-05 s⁻¹ | self-cleavage kobs at 10000 uM GlcN6P [2]: < 1e-05 s⁻¹

C8A C16U U45C G62U C70A
self-cleavage kobs at 40 uM GlcN6P [1]: < 1e-05 s⁻¹

G60U G62A
self-cleavage kobs at 40 uM GlcN6P [1]: < 1e-05 s⁻¹ | self-cleavage kobs at 160 uM GlcN6P [3]: < 1e-05 s⁻¹ | self-cleavage kobs at 640 uM GlcN6P [5]: < 1e-05 s⁻¹

C58G G60A
self-cleavage kobs at 40 uM GlcN6P [1]: < 1e-05 s⁻¹

A14C G32A A52U
self-cleavage kobs at 40 uM GlcN6P [1]: < 1e-05 s⁻¹ | self-cleavage kobs at 2500 uM GlcN6P [4]: 5.9e-05 ± 2.1e-05 s⁻¹ | self-cleavage kobs at 10000 uM GlcN6P [2]: 9.78e-05 ± 1.9e-05 s⁻¹

G29C A42C G43C U54A
self-cleavage kobs at 40 uM GlcN6P [1]: < 1e-05 s⁻¹

A6C G29A G40A G44U
self-cleavage kobs at 40 uM GlcN6P [1]: < 1e-05 s⁻¹ | self-cleavage kobs at 10000 uM GlcN6P [2]: < 1e-05 s⁻¹

C8A U49G
self-cleavage kobs at 40 uM GlcN6P [1]: < 1e-05 s⁻¹ | self-cleavage kobs at 160 uM GlcN6P [3]: < 1e-05 s⁻¹ | self-cleavage kobs at 640 uM GlcN6P [5]: < 1e-05 s⁻¹ | self-cleavage kobs at 2500 uM GlcN6P [4]: < 1e-05 s⁻¹ | self-cleavage kobs at 10000 uM GlcN6P [2]: < 1e-05 s⁻¹

A39G G51U
self-cleavage kobs at 40 uM GlcN6P [1]: < 1e-05 s⁻¹ | self-cleavage kobs at 160 uM GlcN6P [3]: < 1e-05 s⁻¹ | self-cleavage kobs at 640 uM GlcN6P [5]: < 1e-05 s⁻¹ | self-cleavage kobs at 2500 uM GlcN6P [4]: < 1e-05 s⁻¹ | self-cleavage kobs at 10000 uM GlcN6P [2]: < 1e-05 s⁻¹

C8U C10A G40C C67A
self-cleavage kobs at 40 uM GlcN6P [1]: < 1e-05 s⁻¹

G37U G63A
self-cleavage kobs at 40 uM GlcN6P [1]: < 1e-05 s⁻¹ | self-cleavage kobs at 160 uM GlcN6P [3]: < 1e-05 s⁻¹ | self-cleavage kobs at 640 uM GlcN6P [5]: < 1e-05 s⁻¹ | self-cleavage kobs at 2500 uM GlcN6P [4]: < 1e-05 s⁻¹ | self-cleavage kobs at 10000 uM GlcN6P [2]: < 1e-05 s⁻¹

G9A C34U
self-cleavage kobs at 40 uM GlcN6P [1]: < 1e-05 s⁻¹ | self-cleavage kobs at 640 uM GlcN6P [5]: < 1e-05 s⁻¹ | self-cleavage kobs at 10000 uM GlcN6P [2]: < 1e-05 s⁻¹

G37A G44U U65G
self-cleavage kobs at 40 uM GlcN6P [1]: < 1e-05 s⁻¹ | self-cleavage kobs at 160 uM GlcN6P [3]: < 1e-05 s⁻¹ | self-cleavage kobs at 640 uM GlcN6P [5]: < 1e-05 s⁻¹ | self-cleavage kobs at 10000 uM GlcN6P [2]: < 1e-05 s⁻¹

G41A G62U
self-cleavage kobs at 40 uM GlcN6P [1]: < 1e-05 s⁻¹ | self-cleavage kobs at 160 uM GlcN6P [3]: < 1e-05 s⁻¹ | self-cleavage kobs at 640 uM GlcN6P [5]: < 1e-05 s⁻¹ | self-cleavage kobs at 10000 uM GlcN6P [2]: < 1e-05 s⁻¹

C8A G32A G37A
self-cleavage kobs at 40 uM GlcN6P [1]: < 1e-05 s⁻¹

U31G C61U C67U
self-cleavage kobs at 40 uM GlcN6P [1]: < 1e-05 s⁻¹ | self-cleavage kobs at 640 uM GlcN6P [5]: < 1e-05 s⁻¹

G37U A52U U56C
self-cleavage kobs at 40 uM GlcN6P [1]: < 1e-05 s⁻¹ | self-cleavage kobs at 640 uM GlcN6P [5]: < 1e-05 s⁻¹ | self-cleavage kobs at 2500 uM GlcN6P [4]: < 1e-05 s⁻¹

C19A G29U C58A C67G
self-cleavage kobs at 40 uM GlcN6P [1]: 3.09e-05 ± 1.3e-05 s⁻¹ | self-cleavage kobs at 10000 uM GlcN6P [2]: 6.68e-05 ± 1.4e-05 s⁻¹

A6C G35U A36G G63U
self-cleavage kobs at 40 uM GlcN6P [1]: < 1e-05 s⁻¹

A64G C68U
self-cleavage kobs at 40 uM GlcN6P [1]: < 1e-05 s⁻¹ | self-cleavage kobs at 160 uM GlcN6P [3]: < 1e-05 s⁻¹ | self-cleavage kobs at 2500 uM GlcN6P [4]: 2.62e-05 ± 9e-06 s⁻¹ | self-cleavage kobs at 10000 uM GlcN6P [2]: 3.13e-05 ± 9.2e-06 s⁻¹

A42U U56C G60U
self-cleavage kobs at 40 uM GlcN6P [1]: < 1e-05 s⁻¹

A48U C61A
self-cleavage kobs at 40 uM GlcN6P [1]: < 1e-05 s⁻¹ | self-cleavage kobs at 160 uM GlcN6P [3]: < 1e-05 s⁻¹ | self-cleavage kobs at 10000 uM GlcN6P [2]: < 1e-05 s⁻¹

U31G A42U C50U C61G
self-cleavage kobs at 40 uM GlcN6P [1]: < 1e-05 s⁻¹ | self-cleavage kobs at 10000 uM GlcN6P [2]: < 1e-05 s⁻¹

A42U A48C
self-cleavage kobs at 40 uM GlcN6P [1]: < 1e-05 s⁻¹ | self-cleavage kobs at 160 uM GlcN6P [3]: < 1e-05 s⁻¹ | self-cleavage kobs at 640 uM GlcN6P [5]: < 1e-05 s⁻¹ | self-cleavage kobs at 2500 uM GlcN6P [4]: < 1e-05 s⁻¹

C10G U56G C68A
self-cleavage kobs at 40 uM GlcN6P [1]: < 1e-05 s⁻¹

G13C U31A G51A
self-cleavage kobs at 40 uM GlcN6P [1]: < 1e-05 s⁻¹

C34A U47A
self-cleavage kobs at 40 uM GlcN6P [1]: < 1e-05 s⁻¹

G7U G13A A15U U31G U49G C67A
self-cleavage kobs at 40 uM GlcN6P [1]: < 1e-05 s⁻¹

C8G U54C
self-cleavage kobs at 40 uM GlcN6P [1]: < 1e-05 s⁻¹ | self-cleavage kobs at 160 uM GlcN6P [3]: < 1e-05 s⁻¹ | self-cleavage kobs at 640 uM GlcN6P [5]: < 1e-05 s⁻¹ | self-cleavage kobs at 2500 uM GlcN6P [4]: < 1e-05 s⁻¹ | self-cleavage kobs at 10000 uM GlcN6P [2]: < 1e-05 s⁻¹

C16U C50A A52C U65C G66U
self-cleavage kobs at 40 uM GlcN6P [1]: < 1e-05 s⁻¹ | self-cleavage kobs at 640 uM GlcN6P [5]: < 1e-05 s⁻¹

G37U G40C
self-cleavage kobs at 40 uM GlcN6P [1]: < 1e-05 s⁻¹ | self-cleavage kobs at 160 uM GlcN6P [3]: < 1e-05 s⁻¹ | self-cleavage kobs at 640 uM GlcN6P [5]: < 1e-05 s⁻¹ | self-cleavage kobs at 2500 uM GlcN6P [4]: < 1e-05 s⁻¹ | self-cleavage kobs at 10000 uM GlcN6P [2]: < 1e-05 s⁻¹

A14C A15U U47C
self-cleavage kobs at 40 uM GlcN6P [1]: < 1e-05 s⁻¹

A33U G38A G41C U54G
self-cleavage kobs at 40 uM GlcN6P [1]: < 1e-05 s⁻¹
